The target of series [1] is T1, Smad5 MH1 (Mus musculus, UniProt P97454 1-143). Briefly: EMSA. (Mobility shift assays separate free from complexed probe on a gel.)
In series [2] the target is T1, Smad5 MH1. The series can be described thus: EMSA. This is another data set of the same source.

Where two headings read alike, the source gives them in different places.

T1 sequence (P97454 1-143): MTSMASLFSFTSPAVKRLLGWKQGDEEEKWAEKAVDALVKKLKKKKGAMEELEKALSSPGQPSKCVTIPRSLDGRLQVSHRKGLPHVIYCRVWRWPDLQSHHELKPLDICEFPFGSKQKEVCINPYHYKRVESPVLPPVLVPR

B1: Smad7 promoter DNA (dsDNA)
DNA 1: CCAGCCAGCCAGCCGGCGCCAC
DNA 2: GTGGCGCCGGCTGGCTGGCTGG
Consider B1, for which the binding result with Smad5 MH1 [1] was “binds”.

B2: Bambi enhancer DNA (dsDNA)
DNA 1: AGTGTCGTCTCGTTGGCGCCGGGTGC
DNA 2: GCACCCGGCGCCAACGAGACGACACT
For B2, the binding result with Smad5 MH1 [1] is “binds”.

B3: Id2 promoter DNA (dsDNA)
DNA 1: CCTGGCGCCAGAGAGTCTGC
DNA 2: GCAGACTCTCTGGCGCCAGG
For B3, the binding result in the series with Smad5 MH1 [2] is given as “binds”.

For the origin of these results see article PMC4605309.
